In assay [1] the target is MD145 virus protease (MD145pro) (MD145 virus (norovirus GII/4)).
The target of assay [2] is Norwalk virus protease (NVpro) (Norwalk virus (norovirus GI/1)) (UniProt Q83883).
UniProt Q83883, sequence (Q83883 1101-1281): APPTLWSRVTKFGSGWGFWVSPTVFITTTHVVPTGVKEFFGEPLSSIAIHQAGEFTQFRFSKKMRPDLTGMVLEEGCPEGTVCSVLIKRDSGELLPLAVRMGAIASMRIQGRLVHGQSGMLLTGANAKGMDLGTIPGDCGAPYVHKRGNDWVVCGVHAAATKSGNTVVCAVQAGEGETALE

For edans-EPDFHLQGPEDLAK-dabcyl [edans-…-dabcyl], the values for the Km of cleavage of the fluorogenic substrate (FRET protease assay) in assay [1] and in assay [2] were 545 µM and 790 µM, respectively.
The like results for edans-DFHLQGP-dabcyl [edans-DFHLQGP-dabcyl] were, in that order, 160 µM and 272 µM.
